Here are results for two molecules from publication PMC10673652, “PoWRKY71 is involved in Paeonia ostii resistance to drought stress by directly regulating light-harvesting chlorophyll a/b-binding 151 gene”.

For this data set, the target named is PoWRKY71 (Paeonia ostii, UniProt A0AB38Z7I8 1-311). In words: EMSA; not stated in the material (EMSA as in Luan et al., ref. 58). The note with it: protein: recombinant, tags: His, SUMO (pET-SUMO), blunt. A general note: Mobility shift assays separate free from complexed probe on a gel.
PoWRKY71, sequence (A0AB38Z7I8 entry or part of it): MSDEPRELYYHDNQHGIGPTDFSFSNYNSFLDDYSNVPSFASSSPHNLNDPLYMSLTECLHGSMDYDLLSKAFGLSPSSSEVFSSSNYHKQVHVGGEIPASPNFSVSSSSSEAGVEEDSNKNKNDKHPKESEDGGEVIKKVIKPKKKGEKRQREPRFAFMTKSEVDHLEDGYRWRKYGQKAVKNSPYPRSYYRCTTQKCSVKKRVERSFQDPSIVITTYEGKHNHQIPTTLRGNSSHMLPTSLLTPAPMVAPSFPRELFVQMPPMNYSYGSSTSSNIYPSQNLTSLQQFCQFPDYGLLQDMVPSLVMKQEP

B1: PoCAB151 promoter W-box probe (dsDNA)
DNA 1: GTGTTTCCTGCATTCGGTCAGCAACCAAATGACC
DNA 2: GGTCATTTGGTTGCTGACCGAATGCAGGAAACAC
Consider B1, for which the binding result was “binds”.

B2: PoCAB151 promoter W-box mutant probe (dsDNA)
DNA 1: GTGTTTCCTGCATTCGAAAAGCAACCAAATGACC
DNA 2: GGTCATTTGGTTGCTTTTCGAATGCAGGAAACAC
In the case of B2, under “label: biotin”, the binding result is “no binding”.
